Patent US20240400720A1 (NOVIMMUNE S A, published 2024)

Key:
human CD47 = target: T1, human CD47 (human, UniProt Q08722 19-141, limits assumed); experiment: affinity maturation by phage display on hCD47; positive in hCD47-SIRPα inhibition screen, reformatted as IgG
T1 construct: also called hCD47

[1] = target: T2, human CD47 on the cell surface (human, UniProt Q08722 19-323); experiment: CD47-SIRPα competitive binding assay: His-tagged soluble human SIRPα (200 ng/ml) on hCD47-transfected CHO cells, antibody 3.3 pM-330 nM; blocked ligand SIRPα
T2 construct: whole, on cells; also called huCD47; native CD47

| Binder | binding result (human CD47) | binding result [1] |
| --- | --- | --- |
| Kc4C3 antibody (antibody, human IgG1, lambda, V domains shown, IgG, lambda) VH: not shown VL: QSALTQPASVSGSPGQSITISCTGTSSDVRAANYVSWYQQHPGKAPKLMIYKNSTRPSGVSNRFSGSKSGNTASLTISGLQAEDEADYYCSSYDWWFRPKVFGGGTKLTVLG | binds | binds |
| Kc4A4 antibody (antibody, human IgG1, lambda, V domains shown, IgG, lambda) VH: not shown VL: QSALTQPASVSGSPGQSITISCTRTSSDVNNTNYVSWYQQHPGKAPKLMIYKTSGRPSGVSNRFSGSKSGNTASLTISGLQAEDEADYYCSSYDWWFRPKVFGGGTKLTVLG | binds | binds |
| Kc4A1 antibody (antibody, human IgG1, lambda, V domains shown, IgG, lambda) VH: not shown VL: QSALTQPASVSGSPGQSITISCTGTSSDVSARNYVSWYQQHPGKAPKLMIYESSKRPSGVSNRFSGSKSGNTASLTISGLQAEDEADYYCSSYDWWFRPKVFGGGTKLTVLG | binds | binds |
| Ka3D3 antibody (antibody, human IgG1, kappa, V domains shown, IgG) VH: not shown VL: DIQMTQSPSSLSASVGDRVTITCRASQSIGKYLNWYQQKPGKAPKLLIYAASRLQSGVPSRFSGSGSGTDFTLTISSLQPEDFATYYCQQMHPRAPKTFGQGTKVEIKR | binds | binds |
| Ke8F2 antibody (antibody, human IgG1, kappa, V domains shown, IgG) VH: not shown VL: DIQMTQSPSSLSASVGDRVTITCRASQSIDKYLNWYQQKPGKAPKLLIYAASSLQSGVPSRFSGSGSGTDFTLTISSLQPEDFATYYCQQKHPRAPRTFGQGTKVEIKR | binds | – |
| Ke84G9 antibody (antibody, human IgG1, kappa, V domains shown, IgG) VH: not shown VL: DIQMTQSPSSLSASVGDRVTITCRASQSISKYLNWYQQKPGKAPKLLIYAASSLQSGVPSRFSGSGSGTDFTLTISSLQPEDFATYYCQQKHPRSPRTFGQGTKVEIKR | binds | binds |
| Ke8G11 antibody (antibody, human IgG1, kappa, V domains shown, IgG) VH: not shown VL: DIQMTQSPSSLSASVGDRVTITCRASQSIGRYLNWYQQKPGKAPKLLIYAASSLQSGVPSRFSGSGSGTDFTLTISSLQPEDFATYYCQQMHPRGPKTFGQGTKVEIKR | binds | binds |
| Ka3G2 antibody (antibody, human IgG1, kappa, V domains shown, IgG; also called KA3-P5G2) VH: not shown VL: DIQMTQSPSSLSASVGDRVTITCRASQSIDKYLNWYQQKPGKAPKLLIYAASRLQSGVPSRFSGSGSGTDFTLTISSLQPEDFATYYCQQMHPRGPKTFGQGTKVEIKR | binds | binds |
| Ke8H6 antibody (antibody, human IgG1, kappa, V domains shown, IgG) VH: not shown VL: DIQMTQSPSSLSASVGDRVTITCRASQSISKYLNWYQQKPGKAPKLLIYNASTLQSGVPSRFSGSGSGTDFTLTISSLQPEDFATYYCQQRHPRGPRTFGQGTKVEIKR | binds | binds |
| Ke8C4 antibody (antibody, human IgG1, kappa, V domains shown, IgG) VH: not shown VL: DIQMTQSPSSLSASVGDRVTITCRASQSISRYLNWYQQKPGKAPKLLIYAASNLQSGVPSRFSGSGSGTDFTLTISSLQPEDFATYYCQQMHPRGPKTFGQGTKVEIKR | binds | binds |
| Ke8B7 antibody (antibody, human IgG1, kappa, V domains shown, IgG) VH: not shown VL: DIQMTQSPSSLSASVGDRVTITCRASQSIGKYLNWYQQKPGKAPKLLIYAASSLQSGVPSRFSGSGSGTDFTLTISSLQPEDFATYYCQQMHPRSPKTFGQGTKVEIKR | binds | binds |
| Ke8H3 antibody (antibody, human IgG1, kappa, V domains shown, IgG) VH: not shown VL: DIQMTQSPSSLSASVGDRVTITCRASQSINRYLNWYQQKPGKAPKLLIYAASRLQSGVPSRFSGSGSGTDFTLTISSLQPEDFATYYCQQKHPRGPRTFGQGTKVEIKR | binds | binds |
| Ke8F1 antibody (antibody, human IgG1, kappa, V domains shown, IgG) VH: not shown VL: DIQMTQSPSSLSASVGDRVTITCRASQSIASYVNWYQQKPGKAPKLLIYAASGLQSGVPSRFSGSGSGTDFTLTISSLQPEDFATYYCQQFHKRRPQTFGQGTKVEIKR | binds | binds |
| Ke8G6 antibody (antibody, human IgG1, kappa, V domains shown, IgG) VH: not shown VL: DIQMTQSPSSLSASVGDRVTITCRASQSIGRYLNWYQQKPGKAPKLLIYAASSLQSGVPSRFSGSGSGTDFTLTISSLQPEDFATYYCQQMHPRAPKTFGQGTKVEIKR | binds | binds |
| Ke8A4 antibody (antibody, human IgG1, kappa, V domains shown, IgG) VH: not shown VL: DIQMTQSPSSLSASVGDRVTITCRASQSIAKYLNWYQQKPGKAPKLLIYAASSLQSGVPSRFSGSGSGTDFTLTISSLQPEDFATYYCQQFHKRSPQTFGQGTKVEIKR | binds | binds |
| Ka3A3 antibody (antibody, human IgG1, kappa, V domains shown, IgG; also called KA3-P1A3) VH: not shown VL: DIQMTQSPSSLSASVGDRVTITCRASQSIASYLNWYQQKPGKAPKLLIYAASRLQSGVPSRFSGSGSGTDFTLTISSLQPEDFATYYCQQMHPRAPKTFGQGTKVEIKR | binds | binds |

| Binder | binding result (human CD47) | binding result [1] |
| --- | --- | --- |
| Ka3A2 antibody (antibody, human IgG1, kappa, V domains shown, IgG) VH: not shown VL: DIQMTQSPSSLSASVGDRVTITCRASQSISKYLNWYQQKPGKAPKLLIYAASRLQSGVPSRFSGSGSGTDFTLTISSLQPEDFATYYCQQMHPRSPKTFGQGTKVEIKR | binds | binds |
| Ka3C5 antibody (antibody, human IgG1, kappa, V domains shown, IgG; also called KA3-P5C5) VH: not shown VL: DIQMTQSPSSLSASVGDRVTITCRASQSISRYLNWYQQKPGKAPKLLIYSASSLQSGVPSRFSGSGSGTDFTLTISSLQPEDFATYYCQQMHPRAPKTFGQGTKVEIKR | binds | binds |
| Ke81A3 antibody (antibody, human IgG1, kappa, V domains shown, IgG) VH: not shown VL: DIQMTQSPSSLSASVGDRVTITCQASQDINRYLNWYQQKPGKAPKLLIYAASSLQSGVPSRFSGSGSGTDFTLTISSLQPEDFATYYCQQRHPRAPRTFGQGTKVEIKR | binds | binds |
| 5A3M4 (antibody, human IgG1, kappa, V domains shown, the list MOLECULES holds only the monovalent form; also called 5A3-M4 antibody) VH: not shown VL: DIQMTQSPSSLSASVGDRVTITCQASQDINKYLNWYQQKPGKAPKLLIYGASRLETGVPSRFSGSGSGTDFTFTISSLQPEDIATYYCQQKHPRNPRTFGQGTKVEIKR | – | binds |
| Ke8E8 antibody (antibody, human IgG1, kappa, V domains shown, IgG) VH: not shown VL: DIQMTQSPSSLSASVGDRVTITCQASQDINKYLNWYQQKPGKAPKLLIYAASSLQSGVPSRFSGSGSGTDFTLTISSLQPEDFATYYCQQKHPRGPRTFGQGTKVEIKR | binds | binds |
| Ka3H3 antibody (antibody, human IgG1, kappa, V domains shown, IgG) VH: not shown VL: DIQMTQSPSSLSASVGDRVTITCQASQDIAKYLNWYQQKPGKAPKLLIYAASALQSGVPSRFSGSGSGTDFTLTISSLQPEDFATYYCQQMHPRSPKTFGQGTKVEIKR | binds | binds |
| Ke8H5 antibody (antibody, human IgG1, kappa, V domains shown, IgG; also called KE8-P6H5) VH: not shown VL: DIQMTQSPSSLSASVGDRVTITCRASQSIARYLNWYQQKPGKAPKLLIYAASSLQSGVPSRFSGSGSGTDFTLTISSLQPEDFATYYCQQFHKRAPQTFGQGTKVEIKR | binds | binds |
| Ke8G2 antibody (antibody, human IgG1, kappa, V domains shown, IgG) VH: not shown VL: DIQMTQSPSSLSASVGDRVTITCRASQSIGRYLNWYQQKPGKAPKLLIYAASRLQSGVPSRFSGSGSGTDFTLTINSLQPEDFATYYCQQKHPRAPRTFGQGTKVEIKR | binds | binds |
| Ke8C7 antibody (antibody, human IgG1, kappa, V domains shown, IgG) VH: not shown VL: DIQMTQSPSSLSASVGDRVTITCQASQDINRYLNWYQQKPGKAPKLLIYAASSLQSGVPSRFSGSGSGTDFTLTISSLQPEDFATYYCQQRHPRGPRTFGQGTKVEIKR | binds | binds |
| Ka3H8 antibody (antibody, human IgG1, kappa, V domains shown, IgG) VH: not shown VL: DIQMTQSPSSLSASVGDRVTITCRASQSIASYLNWYQQKPGKAPKLLIYAASRLQSGVPSRFSGSGSGTDFTLTISSLQPEDFATYYCQQMHPRSPKTFGQGTKVEIKR | binds | binds |
| Ke8B2 antibody (antibody, human IgG1, kappa, V domains shown, IgG; also called KE8-P3B2) VH: not shown VL: DIQMTQSPSSLSASVGDRVTITCRASQSIGKYLNWYQQKPGKAPKLLIYAASRLQSGVPSRFSGSGSGTDFTLTISSLQPEDFATYYCQQKHPRAPRTFGQGTKVEIKR | binds | binds |
| Ke86G9 antibody (antibody, human IgG1, kappa, V domains shown, IgG) VH: not shown VL: DIQMTQSPSSLSASVGDRVTITCRASQSISKYLNWYQQKPGKAPKLLIYNASNLQSGVPSRFSGSGSGTDFTLTISSLQPEDFATYYCQQRHPRGPTTFGQGTKVEIKR | binds | binds |
| Ke8A8 antibody (antibody, human IgG1, kappa, V domains shown, IgG) VH: not shown VL: DIQMTQSPSSLSASVGDRVTITCRASQSISKYLNWYQQKPGKAPKLLIYAASTLQSGVPSRFSGSGSGTDFTLTISSLQPEDFATYYCQQMHPRAPKTFGQGTKVEIKR | binds | binds |
| Ka3B2 antibody (antibody, human IgG1, kappa, V domains shown, IgG) VH: not shown VL: DIQMTQSPSSLSASVGDRVTITCRASQNIGKYLNWYQQKPGKAPKLLIYSASRLQSGVPSRFSGSGSGTDFTLTISSLQPEDFATYYCQQMHPRAPKTFGQGTKVEIKR | binds | binds |
| Ke81G9 antibody (antibody, human IgG1, kappa, V domains shown, IgG) VH: not shown VL: DIQMTQSPSSLSASVGDRVTITCRASQSIDKYLNWYQQKPGKAPKLLIYAASRLQSGVPSRFSGSGSGTDFTLTISSLQPEDFATYYCQQRHKRSPQTFGQGTKVEIKR | binds | binds |
